Results on seven molecules are retold here after publication PMC4755751 (eLife, 2015).

In experiment [1] the target is T1, Biotinylated His14-Avi-bdSUMO-tagged Nup98^716-866 (Xenopus tropicalis, UniProt A0A1B8XZT4, biotin on the Avi-tag).
T1 construct: also called Nup98 NPC anchor domain
The experiment is described as follows: pull-down; biotinylated His14-Avi-bdSUMO-Nup98^716-866 immobilized on Streptavidin agarose; GFP-tagged TP377 bound without or with an equimolar amount or fivefold excess of nanobody competitor; elution by cleavage of the bdSUMO tag; SDS-PAGE, Coomassie. Particulars: both partners purified.

Experiment [2] has as its target T2, Nup98 in nuclear pore complexes of Xenopus laevis XL177 cells (Xenopus laevis XL177 cells, UniProt A0A8J1MFV7).
T2 construct: Xenopus laevis Nup98 within intact NPCs; also called (x)Nup98; source: endogenous, digitonin-permeabilized Xenopus laevis XL177 cells
The experiment in a line: immunostaining of cells or tissue; digitonin-permeabilized Xenopus laevis XL177 cells, 1-10 nM fluorescent nanobody 15 min on ice, washed, then fixed; confocal laser scanning microscopy. The conditions noted are these: one partner purified.

Experiment [3] concerns the target T3, Nup98 (endogenous, Xenopus egg extract) (Xenopus laevis (egg extract), UniProt A0A8J1MFV7).
T3 construct: Xenopus Nup98, FG-repeat nucleoporin; source: endogenous, Xenopus egg extract (high-speed supernatant)
The experiment in a line: affinity purification with mass spectrometry; biotinylated tagged nanobody on magnetic Streptavidin beads, Xenopus egg extract (HSS) 1 h at 4°C, washes in S250 and in 50 mM Tris/HCl pH 7.5, 300 mM NaCl, 0.05% Tween-20, RanQ69L•GTP wash, elution by SUMOStar protease; SDS-PAGE, Coomassie, bands identified by mass spectrometry. The conditions noted are these: one partner purified.

Substitutions are numbered along the chain they refer to.

B1: untagged TP377 produced in the oxidative periplasm (VHH)
VHH: QVQLVESGGGPVEAGGSLRLSCAASGRSFSNSVMAWFRQAPGKEREFLSVLNWSSGRTSIADSVKGRFTMSRDPAKITVYLQMNGLKPEDTAVYYCAASNRGSLYTLDNQNRYEDWGQGTQVTVSS
notes: also called oxidized, disulfide bond-stabilized nanobody; source: E. coli BLR periplasm
Turning to B1, the binding result in experiment [1] is on record as “binds”.

B2: anti-Nup98 nanobody TP377 carrying a single N-terminal Alexa Fluor 647 maleimide (VHH)
VHH: B1 VHH
notes: not shown: His14-bdNEDD8, N-terminal, cleaved
Take B2: the binding result in experiment [2] is on record as “binds”.

B3: 3x Alexa Fluor 488-labeled TP377 (VHH)
VHH: B1 VHH with S7C, S71C
notes: also called 3xCys; source: E. coli cytoplasm, purified (Ni2+ chelate, bdNEDP1 cleavage), labeled with Alexa Fluor 488 maleimide; not shown: His14-bdNEDD8, N-terminal, cleaved
On to B3, for which the binding result in experiment [1] was “binds”.

B4: Biotinylated His14-Avi-(GlySer)9-SUMOStar-(GlySer)9-tagged anti-Nup98 nanobody TP377 (VHH)
VHH: B1 VHH
notes: source: E. coli cytoplasm, co-expressed with BirA, purified (Ni2+ chelate, imidazole elution); not shown: His14, N-terminal, kept; (GlySer)9-scSUMOStar-(GlySer)9, N-terminal, kept
As to B4, the binding result in experiment [3] is recorded as “binds”.

B5: untagged TP377 produced in the mildly oxidative cytoplasm of E. coli SHuffle (VHH)
VHH: B1 VHH
notes: also called SHuffle-expressed TP377; source: E. coli SHuffle cytoplasm; not shown: His14-bdNEDD8, N-terminal, cleaved
On to B5, for which, in experiment [1], the binding result is on record as “binds”.

B6: untagged TP377 produced in the reductive cytoplasm of E. coli BLR (VHH)
VHH: B1 VHH
notes: also called reduced variant; source: E. coli BLR cytoplasm
With B6, the binding result in experiment [1] was “binds”.

B7: unlabeled TP377 (competitor in Figure 5—figure supplement 1c) (VHH)
VHH: B1 VHH
As to B7, the binding result in experiment [1] is “binds”.
